Data published in article PMC6805999, “Molecular Mechanism of SR Protein Kinase 1 Inhibition by the Herpes Virus Protein ICP27” (mBio, 2019).
Square brackets hold non-standard residues; d marks the D form. Ends that are not written are not given here.

Columns and labels:
[1] = target: T1, GB1-SRPK1 (full-length SRPK1 with N-terminal GB1 solubility tag) (Homo sapiens, UniProt Q96SB4); assay: Isothermal titration calorimetry (ITC) of ICP27 peptides with GB1-SRPK1; type: binding; settings: 25°C, 10 μM GB1-SRPK1 in cell, 120 μM peptide in syringe, 20 mM HEPES, 150 mM NaCl, 1 mM TCEP pH 7.4, single-site model, mean of 3 runs (± SD)
T1 construct: His tag; made in house; host or cells: E. coli BL21-CodonPlus (DE3)-RP
T1 sequence (Q96SB4 whole entry): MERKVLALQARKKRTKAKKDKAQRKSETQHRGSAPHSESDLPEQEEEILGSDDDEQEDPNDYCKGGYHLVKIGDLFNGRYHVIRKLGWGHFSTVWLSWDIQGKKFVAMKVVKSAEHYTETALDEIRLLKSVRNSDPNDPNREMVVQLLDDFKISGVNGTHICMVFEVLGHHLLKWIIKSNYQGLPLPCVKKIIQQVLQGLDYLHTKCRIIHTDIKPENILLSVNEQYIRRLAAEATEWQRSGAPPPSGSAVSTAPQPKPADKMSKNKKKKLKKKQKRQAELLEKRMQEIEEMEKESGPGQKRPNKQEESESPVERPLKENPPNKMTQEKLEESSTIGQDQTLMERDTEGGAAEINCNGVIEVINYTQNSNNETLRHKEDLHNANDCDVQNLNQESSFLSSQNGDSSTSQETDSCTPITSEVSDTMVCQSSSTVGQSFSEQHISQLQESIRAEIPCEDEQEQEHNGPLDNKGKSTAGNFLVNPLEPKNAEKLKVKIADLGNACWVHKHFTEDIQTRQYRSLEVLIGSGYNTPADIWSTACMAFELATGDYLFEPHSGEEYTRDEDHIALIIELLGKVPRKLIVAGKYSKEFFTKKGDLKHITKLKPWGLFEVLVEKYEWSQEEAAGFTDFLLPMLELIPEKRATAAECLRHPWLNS
Description: The RGG box in full-length ICP27 (Fig. 1A) was previously identified by mutagenesis experiments as the segment necessary for interaction with SRPK1 ([27]), with the binding modulated by arginine methylation ([51]). […] To further confirm and map the RGG box interaction with SRPK1, we expressed and purified ^15N-labeled ICP27^103–155 and using the established backbone assignment ([55]) carried out nuclear magnetic resonance (NMR) signal perturbation mapping by comparison of ^1H-^15N correlation spectra in the presence and absence of unlabeled GB1-SRPK1 (Fig. 1E). […] These solution data together confirmed that SRPK1 binds with high affinity to a relatively short region of ICP27 containing the RGG box, with possible further contributions from nearby residues 112 to 121, whereas other residues retain significant flexibility when the peptide is bound. […]
GB1-SRPK1 and ICP27 peptides were placed into Slide-a-Lyzer G2 cassettes (Thermo Fisher) and dialyzed within identical buffer consisting of 20 mM HEPES, 150 mM NaCl, and 1 mM TCEP [Tris(2-carboxyethyl)phosphine hydrochloride] […] Protein concentrations were measured by absorbance at 280 nm using extinction coefficients ([67]) of 86,580 M^−1 cm^−1 and 5,500 M^−1 cm^−1 for GB1-SRPK1 and ICP27^103–155, respectively. […]

SRPK1 (Homo sapiens) = SRPK1 (Homo sapiens) (UniProt Q96SB4); settings: cited from earlier work
Chain of SRPK1 (Homo sapiens) (Q96SB4 whole entry): as above

[2] = target: T2, full-length SRPK1 tagged with an N-terminal GB1 solubility tag (human, UniProt Q96SB4 1-655); assay: ITC; 10 μM GB1-SRPK1 in the sample cell, 120 μM ICP27 peptide in the syringe; 25°C; 20 mM HEPES, 150 mM NaCl, 1 mM TCEP, pH 7.4; single-site binding model; settings: both partners purified
T2 construct: serine-arginine protein kinase 1 (SRPK1), human, full length; probably also carries a His tag used for purification; also called GB1-SRPK1; serine-arginine protein kinase 1; source: E. coli, purified (GST or His tag purification, size exclusion chromatography); not shown: GB1, N-terminal, kept
T2 sequence (Q96SB4 whole entry): as above

Work on `CC(C)C[C@H](NC(=O)[C@H](CCCNC(=N)N)NC(=O)[C@H](CO)NC(=O)[C@H](Cc1c[nH]c2ccccc12)NC(=O)[C@@H](NC(=O)[C@@H](N)CO)C(C)C)C(=O)NCC(=O)N[C@@H](C)C(=O)N[C@@H](CCCNC(=N)N)C(=O)N[C@@H](CCCNC(=N)N)C(=O)N1CCC[C@H]1C(=O)N[C@@H](CO)C(=O)N[C@@H](CS)C(=O)N[C@@H](CO)C(=O)N1CCC[C@H]1C(=O)N[C@@H](CCC(=O)O)C(=O)N[C@@H](CCCNC(=N)N)C(=O)N[C@@H](Cc1c[nH]cn1)C(=O)NCC(=O)NCC(=O)N[C@@H](CCCCN)C(=O)N[C@H](C(=O)N[C@@H](C)C(=O)N[C@@H](CCCNC(=N)N)C(=O)N[C@@H](CC(C)C)C(=O)N[C@@H](CCC(N)=O)C(=O)N1CCC[C@H]1C(=O)N1CCC[C@H]1C(=O)N1CCC[C@H]1C(=O)N[C@H](C(=O)N[C@@H](CCCCN)C(=O)N[C@@H](C)C(=O)N[C@@H](CCC(N)=O)C(=O)N1CCC[C@H]1C(=O)N[C@@H](C)C(=O)N[C@@H](CCCNC(=N)N(C)C)C(=O)NCC(=O)NCC(=O)N[C@@H](CCCNC(=N)N)C(=O)N[C@@H](CCCNC(=N)N)C(=O)NCC(=O)N[C@@H](CCCNC(=N)N)C(=O)N[C@@H](CCCNC(=N)N)C(=O)N[C@@H](CCCNC(=N)N)C(=O)NCC(=O)N[C@@H](CCCNC(=N)N(C)C)C(=O)NCC(=O)N[C@@H](CCCNC(=N)N(C)C)C(=O)NCC(=O)NCC(=O)N1CCC[C@H]1C(=O)NCC(=O)N[C@@H](C)C(=O)O)[C@@H](C)O)C(C)C` [methylated ICP27^103–155] yielded a Kd [1] of 261 nM.

In the case of SRSF1 (from UniProt Q07955), the Kd (SRPK1 (Homo sapiens)) is given as 50 nM.

Work on `CC(C)C[C@H](NC(=O)[C@H](CCCNC(=N)N)NC(=O)[C@H](CO)NC(=O)[C@H](Cc1c[nH]c2ccccc12)NC(=O)[C@@H](NC(=O)[C@@H](N)CO)C(C)C)C(=O)NCC(=O)N[C@@H](C)C(=O)N[C@@H](CCCNC(=N)N)C(=O)N[C@@H](CCCNC(=N)N)C(=O)N1CCC[C@H]1C(=O)N[C@@H](CO)C(=O)N[C@@H](CS)C(=O)N[C@@H](CO)C(=O)N1CCC[C@H]1C(=O)N[C@@H](CCC(=O)O)C(=O)N[C@@H](CCCNC(=N)N)C(=O)N[C@@H](Cc1c[nH]cn1)C(=O)NCC(=O)NCC(=O)N[C@@H](CCCCN)C(=O)N[C@H](C(=O)N[C@@H](C)C(=O)N[C@@H](CCCNC(=N)N)C(=O)N[C@@H](CC(C)C)C(=O)N[C@@H](CCC(N)=O)C(=O)N1CCC[C@H]1C(=O)N1CCC[C@H]1C(=O)N1CCC[C@H]1C(=O)N[C@H](C(=O)N[C@@H](CCCCN)C(=O)N[C@@H](C)C(=O)N[C@@H](CCC(N)=O)C(=O)N1CCC[C@H]1C(=O)N[C@@H](C)C(=O)N[C@@H](CCCNC(=N)N)C(=O)NCC(=O)NCC(=O)N[C@@H](CCCNC(=N)N)C(=O)N[C@@H](CCCNC(=N)N)C(=O)NCC(=O)N[C@@H](CCCNC(=N)N)C(=O)N[C@@H](CCCNC(=N)N)C(=O)N[C@@H](CCCNC(=N)N)C(=O)NCC(=O)N[C@@H](CCCNC(=N)N)C(=O)NCC(=O)N[C@@H](CCCNC(=N)N)C(=O)NCC(=O)NCC(=O)N1CCC[C@H]1C(=O)NCC(=O)N[C@@H](C)C(=O)O)[C@@H](C)O)C(C)C` [ICP27^103–155] yielded a Kd [1] of 93.9 nM.

B1: synthetic peptide of ICP27 103-155, unmodified (peptide)
peptide: SVWSRLGARRPSCSPEQHGGKVARLQPPPTKAQPARGGRRGRRRGRGRGGPGA
notes: also called unmodified ICP27^103–155; nonmethylated ICP27^103–155 peptide; source: synthetic peptide (Peptide Protein Research)
With B1 the Kd [2] was 94 ± 23 nM.

B2: synthetic peptide of ICP27 103-155, dimethylated on R138, R148 and R150 (peptide)
peptide: SVWSRLGARRPSCSPEQHGGKVARLQPPPTKAQPA[ADMA]GGRRGRRRG[ADMA]G[ADMA]GGPGA
notes: HSV-1 ICP27, residues 103 to 155; also called methylated ICP27^103–155; methylated ICP27^103–155 peptide; source: synthetic peptide (Peptide Protein Research)
B2 gave a Kd [2] of 262 ± 21 nM.
